1 molecule from patent US5888763A, “Peptides specific for the first Crk-SH3 domain” (The Rockefeller University, priority 1994, dated 1999) can be followed below.

Common to all, as to test: SH3 blot assay with 35S-labeled gst-C3G CB-region
Type in all cases: binding

Assay [1] relates to Grb2, the individual Grb2SH3 domains. The procedure: (§1) SH3 Blot Assay. […] of gst or equimolar amounts of SH3-fusion proteins were subjected to SDS-PAGE, electroblotted and incubated with […] (70,000 dpm/ml) ^35 S-labeled gst-C3G CB region as described (Feller et al., supra). Filters were exposed over night.
The next assay deals with T1, CrkSH3(N) domain (Mus musculus, UniProt Q64010).
T1 construct: probed with 1-2 μg/ml ^35 S-labeled gst-fusion CrkSH3(1) domain; made in house; host or cells: bacteria
T1 sequence (Q64010 132-192 limits assumed): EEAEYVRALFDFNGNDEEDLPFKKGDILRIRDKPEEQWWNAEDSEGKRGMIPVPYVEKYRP
How it is done:
as §1

For the next assay, the target named is T2, PI3Kp85-a-SH3 domain (Homo sapiens, UniProt P27986).
T2 construct: The PI3Kp85-a-SH3 domain was a gift of L. Cantley
T2 sequence (P27986 3-79 limits assumed): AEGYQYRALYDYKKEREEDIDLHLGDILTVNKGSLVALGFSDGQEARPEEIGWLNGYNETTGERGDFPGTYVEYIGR
How it is done: as §1

B1: C3G CB-region: C3G region containing all four CB-sequences expressed as 35S-labeled gst-fusion protein (protein)
chain: NSPPPALPPKKRQSAPSPTRVAVVAPMSRATSGSSLPVGINRQDFDVDCYAQRRLSGGSHSYGGESPRLSPCSSIGKLSKSDEQLSSLDRDSGQCSRNTSCETLDHYDPDYEFLQQDLSNADQIPQQTAWNLSPLPESLGESGSPFLGPPFQLPLGGHPQPDGPLAPGQQTDTPPALPKKKRRSAASQTADGSGCRVSYERHPSQYDNISGEDLQSTAPIPSVPYAPFAAILPFQHGGSSAPVEFVGDFTAPESTGDPEKPPPLPEKKQKHMLAYMQLLEDYSEPQPSMFYQTPQNEHIYQQKMKLLMEVYGFSDSFSGVDSVQELAPPPALPPAQRQLEPPAGKDGHPRDPSAVSVVPGKDSRDGSERAPKDP
Regarding B1, in assay [1], the “binding to Grb2 and the individual Grb2SH3 domains” value is on record as “only bound weakly”. For the same molecule, the “binding to gst-fusion constructs containing the CrkSH3(N) domain” value with CrkSH3(N) domain is listed as “bound strongly”. Moreover, in the assay with PI3Kp85-a-SH3 domain, the “binding to PI3Kp85-a-SH3 domain” value was “only bound weakly”.
